In the supplement of paper PMC10724198:
± gives the standard deviation of the averaged measurements.

Test system: Saccharomyces cerevisiae
Assay: protein stability index of tFT-peptide fusion (C-terminal peptide) (PSI (0-1 scale)); higher = more stable (slower turnover)
Conditions: genetic background: wild type; temperature: 30 C
Description: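 Multiplexed protein stability (MPS) profiling in S. cerevisiae. Random 12-aa peptides (tFT-X12 library) are fused to the C-terminus of a sfGFP-mCherry tandem fluorescent timer, after mCherry and a GGGS linker. Cells are FACS-sorted into 8 mCherry/sfGFP bins and deep-sequenced. The protein stability index (PSI) is the read-weighted bin average, scaled from 0 (unstable) to 1 (stable). Only peptides with >10 reads are reported; cells were grown at 30 °C in SC-His with glucose.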
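Also: PSI is a weighted mean of sequencing reads over stability bins, variants kept only with over 10 reads, mCherry proximal and sfGFP distal, peptide attached via GGGS linker.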

Row | Sequence | protein stability index
1 | DSVRGNDSGSGL | 0.7245 ± 0.0064
2 | RGVCGVGLYTGG | 0.657 ± 0.02
3 | GLMAIKVNLNHS | 0.619 ± 0.032
4 | AEAKRKSTYKRW | 0.607 ± 0.026
5 | TGNARCYFGKSV | 0.692 ± 0.011
6 | GRGGGEEEEEER | 0.663 ± 0.024
7 | VLCRVALWGVGG | 0.653 ± 0.02
8 | GWREPQHGARGP | 0.719 ± 0.022
9 | RIVVDIYANRRG | 0.689 ± 0.02
10 | VCRTLAPCIRWR | 0.633 ± 0.063
11 | TELSLHFAGYAE | 0.74 ± 0.031
12 | VRRWGKWSIVGW | 0.736 ± 0.03
13 | FDLVFRPVLGLL | 0.6246 ± 0.0052
14 | GFAAPSRPACLP | 0.696 ± 0.017
15 | VPSPHLQPTVSP | 0.654 ± 0.0074
16 | GGGVLTWLGENC | 0.702 ± 0.0082
17 | PPSMRQRKRSGP | 0.746 ± 0.028
18 | TSPLSPPLPSFR | 0.696 ± 0.021
19 | PGRYTDCCLPNR | 0.682 ± 0.022
20 | GGWWGGGGAWSG | 0.689 ± 0.053
21 | VAPPVLCRCSLR | 0.6481 ± 0.0052
22 | GGGGGGWSGACL | 0.716 ± 0.08
23 | DSQSRRFDRSRN | 0.671 ± 0.076
24 | PPPKRTPTPQCP | 0.702 ± 0.078
25 | IQARAVRRSAII | 0.627 ± 0.0012

Row | Sequence | protein stability index
26 | NNEETIKQKNLQ | 0.702 ± 0.025
27 | SNPKLPYSGTLE | 0.6685 ± 0.0015
28 | HIHHVPGPHITA | 0.706 ± 0.0088
29 | AAVLSYLKHLFV | 0.627 ± 0.022
30 | NFEVHRCGISLR | 0.681 ± 0.0075
31 | PLVPRCFVPPVI | 0.657 ± 0.023
32 | CCADPWRIARPW | 0.729 ± 0.042
33 | SYSPPPLPPHPP | 0.55109 ± 0.00031
34 | PPSTFDPSTLRP | 0.665 ± 0.041
35 | SAQPELPNIAPA | 0.636 ± 0.049
36 | SPPHLPPPLLST | 0.645 ± 0.06
37 | SFVLKAFLTRAV | 0.765 ± 0.23
38 | LATPPPPPLSPP | 0.789 ± 0.19
39 | LRVVCVVGQRSL | 0.554 ± 0.0094
40 | SPPHASPPVLPW | 0.72 ± 0.028
41 | DRSRWMVVRGGG | 0.648 ± 0.13
42 | EAVCHQFVELIG | 0.605 ± 0.02
43 | CAVPAVIDLDKF | 0.65 ± 0.087
44 | TKKDNKYNRNKK | 0.656 ± 0.029
45 | NGLLRPALVPNY | 0.693 ± 0.012
46 | GGTGGRRGVGHV | 0.655 ± 0.022
47 | FMVFCFPFTGVL | 0.562 ± 0.022
48 | LWRSRSCSGHSF | 0.651 ± 0.053
49 | GSACGSSYKWQM | 0.614 ± 0.068
50 | STVFAICQVLPI | 0.6592 ± 0.0021

Row | Sequence | protein stability index
51 | RFGCGRRGQWMR | 0.722 ± 0.06
52 | SAPILPPQSSSP | 0.749 ± 0.035
53 | VVNVVGRVVPKG | 0.7396 ± 0.006
54 | CSLFRCSKVVLG | 0.672 ± 0.037
55 | WCGDVLWLMSCG | 0.714 ± 0.016
56 | PPPVPTRPSPPP | 0.6737 ± 0.0047
57 | GDSGVWGPMGLW | 0.732 ± 0.033
58 | HTWARGLGVIRP | 0.768 ± 0.012
59 | PPHLSPPPPPLL | 0.6987 ± 0.0054
60 | RVCYRAELSAMS | 0.559 ± 0.045
61 | LGRCRQTERETS | 0.649 ± 0.089
62 | EGIVRYRKRGSR | 0.665 ± 0.015
63 | EKKEGEREKQED | 0.751 ± 0.15
64 | DCSCCGGVSCVV | 0.639 ± 0.014
65 | SPPPPRPRPCAI | 0.753 ± 0.12
66 | PPSSFHFVVPHP | 0.684 ± 0.054
67 | RLGHAIVLLLPC | 0.57 ± 0.027
68 | HSPHSQYLLRID | 0.72 ± 0.033
69 | DCVWGLERVLLL | 0.756 ± 0.016
70 | TRRRGGAREGPY | 0.758 ± 0.064
71 | ITTKLRVTRLLR | 0.766 ± 0.13
72 | SRSPPVLTRHKL | 0.824 ± 0.058
73 | GGVRTLVSRHLP | 0.7121 ± 0.0043
74 | PLPLPPPFILPT | 0.646 ± 0.052
75 | SVETVSSSSVAD | 0.656 ± 0.057

Row | Sequence | protein stability index
76 | GKPSEMSMREDS | 0.704 ± 0.019
77 | WADAAYLGCWWD | 0.737 ± 0.072
78 | GLGVWDLRLGWG | 0.701 ± 0.011
79 | SQKWKGSSVIIG | 0.723 ± 0.032
80 | ERVMMKNDSIVT | 0.623 ± 0.1
81 | RSSLGSFSELSQ | 0.777 ± 0.031
82 | DLGPLFVSWSTW | 0.778 ± 0.021
83 | GGGEKVMVVGHG | 0.709 ± 0.013
84 | PNHGEYRNGLYV | 0.715 ± 0.11
85 | PLPPRPCCLPRP | 0.644 ± 0.098
86 | LEVHQGYLSSCH | 0.676 ± 0.12
87 | WGRGRWEMVGRT | 0.693 ± 0.037
88 | VLMGAGGHSWER | 0.725 ± 0.037
89 | KKKEKKRKEEKN | 0.824 ± 0.052
90 | ALSCLVCLFGLL | 0.545 ± 0.054
91 | RKKRFENKKEKY | 0.731 ± 0.057
92 | SVLSVAIRAPTQ | 0.691 ± 0.093
93 | LARWFILRDLIY | 0.56 ± 0.0089
94 | VRFYVFSFSNWL | 0.586 ± 0.031
95 | GAVLELCRADGG | 0.651 ± 0.0082
96 | QTVKNYTSQSKR | 0.666 ± 0.018
97 | PPPPPPPPPCHL | 0.644 ± 0.078
98 | GCGDIFAEQLLL | 0.7227 ± 0.0041
99 | ALGVGLDEILVM | 0.556 ± 0.0093
100 | VLLLLPASTPSL | 0.696 ± 0.079

Row | Sequence | protein stability index
101 | PPPPPPTPDPLA | 0.666 ± 0.048
102 | VGCVFVASRLVL | 0.627 ± 0.038
103 | EDRTQEIQNIHD | 0.686 ± 0.012
104 | RSLGFPLRNVTH | 0.655 ± 0.015
105 | TDFRSGLIFIIV | 0.544 ± 0.045
106 | SLSRLVGPLVSS | 0.611 ± 0.0066
107 | PSAPLVPNLLAA | 0.662 ± 0.016
108 | PTQVSGIVPAPR | 0.7732 ± 0.0051
109 | GAVGGGSAADPE | 0.667 ± 0.11
110 | RQEKITQHRARI | 0.689 ± 0.024
111 | VGVGPVGDVWLI | 0.6979 ± 0.0027
112 | GRVSGDRFIVIV | 0.572 ± 0.0008
113 | GGWRGRAGENTR | 0.698 ± 0.036
114 | YRLAPPPHPPPP | 0.576 ± 0.021
115 | GFLGCGSGCGWG | 0.744 ± 0.057
116 | KKKRKRKRSRRK | 0.639 ± 0.03
117 | VCSLSCVGIWYW | 0.625 ± 0.0039
118 | VVWSWCWEYAAV | 0.625 ± 0.013
119 | PADAPPPTRPEA | 0.724 ± 0.032
120 | ATTPPSSLFGPL | 0.768 ± 0.072
121 | FCLIHCIVPFPV | 0.507 ± 0.093
122 | RQPRPPDDIASV | 0.678 ± 0.032
123 | PPPAPPCFAPFP | 0.673 ± 0.019
124 | GLPFPPGPIFVS | 0.743 ± 0.19
125 | PPPSPPPYRLPP | 0.7 ± 0.016

Row | Sequence | protein stability index
126 | SLLLALPSLPLS | 0.553 ± 0.18
127 | FLLSLYSVPFVL | 0.63984 ± 0.00021
128 | KKRGNYKTTESN | 0.687 ± 0.0076
129 | FTISALSSTPRP | 0.669 ± 0.042
130 | CLAFDLGLSPLF | 0.755 ± 0.099
131 | PSTAPHLSPPPP | 0.731 ± 0.022
132 | STPVEATQDVAR | 0.724 ± 0.0083
133 | AGWPWAGRSCWG | 0.728 ± 0.044
134 | RDRVSASILVLP | 0.6892 ± 0.0056
135 | FVAPPLCMPLSR | 0.704 ± 0.04
136 | LGRGRWSVLVVR | 0.5287 ± 0.0014
137 | YTSFGSSLIPTT | 0.652 ± 0.074
138 | LGQRFRLFVSFF | 0.468 ± 0.077
139 | KDRKKYIMTKPS | 0.627 ± 0.051
140 | VFCPGWRKCNDP | 0.661 ± 0.043
141 | CTGISVFYLFGD | 0.66 ± 0.033
142 | LRQALGRSEEPQ | 0.6728 ± 0.0065
143 | PPAPLAPPPAGC | 0.67 ± 0.038
144 | LGGGGPSVREGE | 0.679 ± 0.05
145 | PPSVLPLPPSLP | 0.732 ± 0.043
146 | HYPLPPLLPPAP | 0.674 ± 0.014
147 | PSLPRLPLCPLP | 0.704 ± 0.018
148 | ISMPECDIVEEI | 0.707 ± 0.022
149 | APSLPPVVQPLI | 0.663 ± 0.023
150 | FVSWNLPLAFAF | 0.499 ± 0.017

Row | Sequence | protein stability index
151 | YLDVWTGLSCQD | 0.683 ± 0.11
152 | KKDFTTKSKEYR | 0.7125 ± 0.0026
153 | CACIPLHFAPSL | 0.683 ± 0.04
154 | IGGGWIGRYVSR | 0.684 ± 0.033
155 | SDGEHIYPESYR | 0.695 ± 0.023
156 | PGPPFPMANTPF | 0.646 ± 0.048
157 | GGVGGFGGAGLG | 0.65 ± 0.023
158 | RLHSLFVSCPTC | 0.703 ± 0.023
159 | RGCTVHSLNSSY | 0.6757 ± 0.0022
160 | SSHLILTVAPSA | 0.6515 ± 0.0045
161 | PSPSPNALALLR | 0.71439 ± 0.00045
162 | QGYWVKAVCASH | 0.624 ± 0.023
163 | FVDWGLFAFGCL | 0.796 ± 0.062
164 | EKIKKTEKNKNK | 0.6755 ± 0.0042
165 | WGCAGVGGVGGG | 0.6853 ± 0.0065
166 | KKKKKQIKKQKK | 0.586 ± 0.02
167 | LPVLPPLSPSPF | 0.665 ± 0.011
168 | ILTCGARSSICD | 0.639 ± 0.011
169 | THHSDLHPRTAP | 0.697 ± 0.033
170 | SLLTSGSLTLFV | 0.71 ± 0.037
171 | ATHSMSYRGSTK | 0.662 ± 0.081
172 | GTTLGEVVCGVL | 0.683 ± 0.045
173 | SSSFFLFPVGFF | 0.784 ± 0.14
174 | VTPVPFRTMMST | 0.571
175 | RAIPRPLPPRRI | 0.7164 ± 0.0029

Row | Sequence | protein stability index
176 | GFMRGVREKSSR | 0.701 ± 0.0073
177 | RLYTNEMIRGSF | 0.69 ± 0.04
178 | QTWVQIGIRITL | 0.44 ± 0.087
179 | DHGRLFSNILIS | 0.645 ± 0.028
180 | GNKKRDSDKIKE | 0.6054 ± 0.0028
181 | SIVRKRPRTTAT | 0.682 ± 0.031
182 | VDCYIFPGIGAL | 0.701 ± 0.041
183 | EGPTRIKRGRSG | 0.685 ± 0.031
184 | TRSLPTLSPPPS | 0.659 ± 0.086
185 | PFSVCVSSSLCG | 0.665 ± 0.0076
186 | RPRVDLCDINPE | 0.692 ± 0.021
187 | FSFIPIRRYPVM | 0.733 ± 0.15
188 | LALGICRLSSAG | 0.7599 ± 0.005
189 | DFLCHFCVIDEC | 0.653 ± 0.066
190 | AALHPLRISASV | 0.646 ± 0.081
191 | PLIDRKIKKAIQ | 0.705 ± 0.069
192 | FAWYSFYSPPPR | 0.667 ± 0.0048
193 | LTSATSSGPPHP | 0.7232 ± 0.0029
194 | SEAHMGWRGGEK | 0.643 ± 0.1
195 | SRPPSSQSNDEL | 0.66 ± 0.078
196 | CVCVCHPPRRFL | 0.719 ± 0.015
